Results on 56 sequences are retold here after the supplement of paper PMC10724198.

± gives the standard deviation of the averaged measurements.

The test system of series [1] is Saccharomyces cerevisiae. The experiment in a line: protein stability index of tFT-peptide fusion in wild type (PSI (0-1 scale)); higher = more stable (slower turnover). The following applies: genetic background: wild type.
For series [2], the system named is Saccharomyces cerevisiae. In words: protein stability index of tFT-peptide fusion in deletion strain of DOA10 (PSI (0-1 scale)); higher = more stable (slower turnover). The procedure: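 MPS profiling in S. cerevisiae of two library types built from selected 12-aa C-degron peptides (IN1, IN2, LN1, LN3, VN2, R1-R5, W1-W3, Atg1 and Rpa12 C-termini): saturation mutagenesis libraries and C-terminal +1 capping libraries (13 aa). Each peptide is fused to the C-terminus of a sfGFP-mCherry timer, after a GGGS linker. Cells are FACS-sorted into 8 mCherry/sfGFP bins and sequenced. PSI runs from 0 (unstable) to 1 (stable), measured once in wild type and in the das1Δ or doa10Δ background.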

The subject of series [3] is Saccharomyces cerevisiae. The experiment in a line: protein stability index of tFT-peptide fusion (C-terminal peptide) (PSI (0-1 scale)); higher = more stable (slower turnover). Conditions: genetic background: wild type; temperature: 30 C.
The test system of series [4] is Saccharomyces cerevisiae. Described as above. Here is the method:
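MPS profiling in S. cerevisiae of the tFT-X12 degron library: putative degron peptides plus stable controls, 12 aa, fused to the C-terminus of a sfGFP-mCherry timer. Cells are FACS-sorted into 8 mCherry/sfGFP bins and deep-sequenced. PSI runs from 0 (unstable) to 1 (stable). Backgrounds are wild type, das1Δ and doa10Δ at 30 °C, and wild type, das1Δ, cdc34-1 and cdc53-1 at 37 °C; 2-3 technical replicates each.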
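Throughout, for protein stability index of tFT-peptide fusion (C-terminal peptide): PSI is a weighted mean of sequencing reads over stability bins, variants kept only with over 10 reads, mCherry proximal and sfGFP distal, peptide attached via GGGS linker.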
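Throughout, for protein stability index of tFT-peptide fusion in deletion strain of DOA10: PSI per variant is the weighted mean of its sequencing read distribution over the sorted stability bins, counting only variants with over 10 reads summed across bins.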
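Throughout, for protein stability index of tFT-peptide fusion in wild type: PSI derived as read-weighted mean over the 8 sorting bins, only variants exceeding 10 total reads kept, mCherry placed adjacent to the peptide and sfGFP distal.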

In the case of QLYMCSVGCWFR, the protein stability index came to 0.368 in series [1] and 0.625 in series [2].
For the sequence RDTRLDAIYFRI, the protein stability index is 0.563 in series [1] and 0.644 in series [2].
With RFTRLDAIYFRI, the values for the protein stability index in series [1] and in series [2] were 0.378 and 0.656, respectively.
For RITRLDAIYFRI, in that order: 0.397 and 0.673.
The matching figures for RMLRVLLPLYFR: 0.359 and 0.656.
The matching figures for RNLRVLLPLYFR: 0.302 and 0.682.
As for RSLGVLLPLYFR, the protein stability index in series [1] came out at 0.321; in series [2], 0.691.
The matching figures for RSLRMLLPLYFR: 0.376 and 0.615.
Regarding RSLRVHLPLYFR, the protein stability index in series [1] worked out at 0.157; in series [2] it was 0.67.
On to RSLRVILPLYFR, for which the protein stability index in series [1] worked out at 0.197; in series [2] it was 0.675.
Consider RSLRVLLKLYFR, for which the protein stability index in series [1] was 0.417; in series [2], 0.616.
RSLRVLLPLKFR: the protein stability index in series [1] is 0.431; in series [2], 0.67.
The matching figures for RSLRVLLPLRFR: 0.41 and 0.661.
Regarding RSLRVLLPLYAR, the protein stability index turned out to be 0.348 in series [1] and 0.474 in series [2].
For RSLRVLLPLYFD, the protein stability index in series [1] came out at 0.491; in series [2] it was 0.63.
Consider RSLRVLLPLYFI, for which the protein stability index was found to be 0.255 in series [1] and 0.528 in series [2].
With RSLRVLLPLYFK, the protein stability index is 0.25 in series [1] and 0.633 in series [2].
With RSLRVLLPLYFM, the protein stability index in series [1] worked out at 0.328; in series [2] it was 0.42.
Regarding RSLRVLLPLYFQ, the protein stability index in series [1] came to 0.431; in series [2], 0.615.
In the case of RSLRVLLPLYFRA, the values for the protein stability index in series [1] and in series [2] were 0.244 and 0.593, respectively.
As to RSLRVLLPLYFRI, the protein stability index was 0.184 in series [1] and 0.484 in series [2].
RSLRVLLPLYFRT: the protein stability index worked out at 0.268 in series [1] and 0.655 in series [2].
The matching figures for RSLRVLLPLYFS: 0.246 and 0.352.
The matching figures for RSLRVLLPLYFT: 0.265 and 0.478.
For the sequence RSLRVLLPLYKR, the protein stability index in series [1] came to 0.602; in series [2] it was 0.662.
As for RSLRVLLPSYFR, the protein stability index in series [1] was determined as 0.65; in series [2] it was 0.668.
As to RSLRVLLRLYFR, the protein stability index in series [1] came to 0.391; in series [2], 0.625.
For RSLRVLLSLYFR, in that order: 0.452 and 0.643.
In the case of RSLRVLLVLYFR, the protein stability index was 0.269 in series [1] and 0.389 in series [2].
For the sequence RSLRVLRPLYFR, the protein stability index in series [1] turned out to be 0.257; in series [2], 0.684.
As to RSLRVLYPLYFR, the protein stability index turned out to be 0.279 in series [1] and 0.67 in series [2].
For the sequence RSLRVYLPLYFR, the protein stability index was found to be 0.268 in series [1] and 0.678 in series [2].
On to RSLRWLLPLYFR, for which the protein stability index in series [1] is 0.427; in series [2], 0.642.
Regarding RSLRYLLPLYFR, the results for the protein stability index in series [1] and in series [2] were 0.378 and 0.671, respectively.
Take RVPRLDAIYFRI: the results for the protein stability index in series [1] and in series [2] were 0.389 and 0.669, respectively.
For RVTDLDAIYFRI, the protein stability index was determined as 0.636 in series [1] and 0.678 in series [2].
For RVTLLDAIYFRI, in that order: 0.455 and 0.662.
Regarding RVTRGDAIYFRI, the protein stability index was determined as 0.553 in series [1] and 0.693 in series [2].
On to RVTRKDAIYFRI, for which the protein stability index in series [1] was determined as 0.564; in series [2], 0.664.
Take RVTRLDAGYFRI: the protein stability index in series [1] came out at 0.673; in series [2], 0.702.
The matching figures for RVTRLDAIKFRI: 0.66 and 0.685.
For RVTRLDAISFRI, the protein stability index is 0.691 in series [1] and 0.727 in series [2].
On to RVTRLDAIWFRI, for which the protein stability index in series [1] was 0.22; in series [2] it was 0.676.
For the sequence RVTRLDAIYFQI, the protein stability index in series [1] was found to be 0.292; in series [2] it was 0.305.
Consider RVTRLDAIYFRI, for which the protein stability index in series [1] stood at 0.328; in series [3] it was 0.381 ± 0.019; in series [2], 0.681; in series [4] (genetic background: cdc34-1, temperature: 37 C) it was 0.265 ± 0.06; in series [4] (genetic background: cdc53-1, temperature: 37 C), 0.198 ± 0.0072; in series [4] (genetic background: das1 deletion, temperature: 30 C), 0.341 ± 0.031. Further, the protein stability index was 0.351 ± 0.012 in series [4] (genetic background: das1 deletion, temperature: 37 C); 0.717 ± 0.03 in series [4] (genetic background: doa10 deletion, temperature: 30 C); 0.312 ± 0.014 in series [4] (genetic background: wild type, temperature: 30 C); 0.323 ± 0.0054 in series [4] (genetic background: wild type, temperature: 37 C).
Regarding RVTRLDAIYFRIW, the protein stability index worked out at 0.234 in series [1] and 0.577 in series [2].
Turning to RVTRLDAIYFRL, the protein stability index in series [1] worked out at 0.395; in series [2] it was 0.7.
As for RVTRLDAIYFRQ, the protein stability index in series [1] was found to be 0.533; in series [2] it was 0.589.
As for RVTRLDAIYPRI, the protein stability index in series [1] worked out at 0.693; in series [2], 0.731.
The matching figures for RVTRLDAVYFRI: 0.442 and 0.68.
As to RVTRLDAWYFRI, the protein stability index was 0.678 in series [1] and 0.717 in series [2].
Take RVTRLDKIYFRI: the figures for the protein stability index in series [1] and in series [2] were 0.283 and 0.51, respectively.
With RVTRLMAIYFRI, the protein stability index in series [1] was 0.155; in series [2], 0.295.
Consider RVTRSDAIYFRI, for which the protein stability index in series [1] amounted to 0.525; in series [2] it was 0.695.
For RWLRVLLPLYFR, the values for the protein stability index in series [1] and in series [2] were 0.402 and 0.682, respectively.
Take WLYMCSVGCWFR: the protein stability index in series [1] came to 0.302; in series [2] it was 0.633.
